The values below come from patent publication US20250019425A1 (ADRX, published 2025).

As a reminder, the Kd is the free concentration of one partner at which half of the binding sites on the other are occupied at equilibrium, for simple one-to-one binding. The low end stands for tighter binding, the high end for weaker binding. Broadly, the EC50 is the concentration giving half of the maximal effect. Read a high EC50 as lower potency in that assay.

Positions count from the first letter of the chain named. Where two headings read alike, the source gives them in different places.

In experiment [1] the target is T1, biotinylated TTR F87M L110M monomer (Avi_mTTR in vivo biotinylation construct) (human, biotin on the Avi tag (in vivo biotinylation by BirA)).
T1 construct: also called Biotinyl-Monomer; biotinyl-mTTR
Put plainly: biolayer interferometry (Octet RED), antibody on anti-mouse biosensor, biotinylated TTR monomer.

For experiment [2], the target named is T1, biotinylated TTR F87M L110M monomer …. The experiment in a line: indirect ELISA, biotinylated mTTR on Neutravidin plate, anti-mouse-HRP. In general terms: An ELISA detects its analyte on a solid surface through an enzyme-linked reagent.
The target of experiment [3] is TTR F87M L110M (monomeric TTR, mTTR), untagged (human, UniProt P02766 21-147). The experiment in a line: sandwich ELISA, antibody coated, untagged mTTR, HRP pan-TTR polyclonal detection.
Experiment [4] addresses T2, TTR S112I (dimer TTR, dTTR), untagged (human, UniProt P02766 21-147). The experiment in a line: sandwich ELISA (Example 11): antibody coated on the plate, untagged TTR titrated, HRP-conjugated pan-TTR polyclonal antibody for detection.
In experiment [5] the target is T3, wild-type TTR (wtTTR), untagged (human, UniProt P02766 21-147). The description is as above.
Experiment [6] concerns the target T2, TTR S112I (dimer TTR, dTTR), untagged. The experiment is described as above. The source holds these as a separate data set.
Experiment [7] concerns the target T3, wild-type TTR (wtTTR), untagged. The experiment is described as above. The source holds these as a separate data set.
Experiment [8] deals with T1, biotinylated TTR F87M L110M monomer …. The experiment in a line: indirect ELISA, biotinylated mTTR on Neutravidin plate, anti-mouse-HRP; indirect ELISA; biotinylated mTTR captured on Neutravidin plate, anti-mouse-HRP detection.
The target of experiment [9] is T2, TTR S112I (dimer TTR, dTTR), untagged. Put plainly: sandwich ELISA (Example 11): antibody coated on the plate, untagged TTR titrated, HRP-conjugated pan-TTR polyclonal antibody for detection. The source holds these as a separate data set.
Experiment [10] addresses T3, wild-type TTR (wtTTR), untagged. The description is as above. This is another data set of the same source.
For experiment [11], the target named is T1, biotinylated TTR F87M L110M monomer …. Put plainly: indirect ELISA, biotinyl-mTTR bound to avidin plates.
Experiment [12] deals with biotinylated TTR S112I (dimer TTR) (human, UniProt P02766 21-147). The experiment in a line: indirect ELISA (Examples 4 and 8): biotinylated TTR on Neutravidin plate, antibody titrated, HRP-conjugated anti-species antibody.
The target of experiment [13] is T1, biotinylated TTR F87M L110M monomer …. Put plainly: indirect ELISA, biotinyl-mTTR bound to avidin plates. The source holds these as a separate data set.

B1: murine anti-human monomer TTR antibody Ab5 (antibody, V domains shown)
VH: EVQLQQSGAELVKPGASVKLSCTASGFNIKDYYMHWVKQRTEQGLEWIGRIDPEDGETKYAPKFQGKATITADTSSNTAYLQLSSLTSEDTAVYYCALLWLRRGRGYWGQGTTLTVSS
VL: DIQMTQSPSSLSASLGERVSLTCRASQEISGYLSWLQQKPDGTIKRLIYAASTLDSGVPKRFSGSRSGSDYSLTISSLESEDFADYYCLQYASYPPTFGAGTKLELK
notes: Murine monoclonal antibody; entries are called Mouse Ab5 HC / LC but hold only the variable domains; also called mAb 5; Antibody 5
B1: in experiment [1], the Kd came out at 1.31 nM. Also, the EC50 in experiment [2] was 0.2 nM; in experiment [3] it was roughly 14.2 nM. The binding result in experiment [4] and in experiment [5] was “no binding (tested: about 20 µM TTR)” each time.

B2: murine anti-human monomer TTR antibody Ab7 (antibody, V domains shown)
VH: EVQLQQSGAELVKPGASVKLSCTASGFNIKDYYMHWVKQRTEQGLEWIGRIDPEDGETKYAPKFQGKATITADTSSNTAYLQLSSLTSEDTAVYYCARGKTPFAYWGQGTLVTVSA
VL: B1 VL with S56F, S67F, A92D, P96F, A100S, L106I
notes: Murine monoclonal antibody; entries are called Mouse Ab7 HC / LC but hold only the variable domains; also called Antibody 7
Consider B2, for which the EC50 in experiment [3] is roughly 43.2 nM; in [8] it was 4.22 nM. Besides, the binding result in experiment [6] and in experiment [7] was “no binding (tested: about 20 µM TTR)” each time.

B3: murine anti-human monomer TTR antibody Ab6 (antibody, V domains shown)
VH: QVQLQQSGAELMKPGASVKLSCKATGYTFTGYWIEWVKQRPGHGLEWIGEILPGSGSTNYNEKFKGKATFTADTSSNTAYMQLSSLTTEDSAIYYCARLRGSSYPWYFDYWGQGTTLTVSS
VL: DIQMTQSPASLSVSVGETVTITCRASENIYSNLAWYQQKQGKSPQLLVYAATNLADGVPSRFSGSGSGTQYSLKINSLQSEDFGSYYCQHFWGTPYTFGGGTKLEIK
notes: Murine monoclonal antibody; entries are called Mouse Ab6 HC / LC but hold only the variable domains; also called Antibody 6
In turn, B3 showed a Kd in experiment [1] of 11.4 nM. Besides, the EC50 in experiment [2] is 0.45 nM; in experiment [3], roughly 12.7 nM.

B4: murine anti-human monomer TTR antibody Ab3 (antibody, V domains shown)
VH: EVQLQQSGPVLVKPGASVKMSCKASGYTFTDYYMNWVKQSHGKSLEWIGVINPYNGGTSYNQKFKGKATLTVDKSSSTAYMELNSLTSEDSAVYYCARDLTGTGGAMDYWGQGTSVTVSS
VL: QIVLTQSPAILSASPGEKVTMTCRASSSVSYMHWYQQKPGSSPKPWIYATSNLASGVPARFSGSGSGTSYSLTISRVEAEDAATYYCQQWSSNPLTFGAGTKLELK
notes: Murine monoclonal antibody; entries are called Mouse Ab3 HC / LC but hold only the variable domains; also called mAb 3; Antibody 3
B4 yielded a Kd in [1] of 12.1 nM. In addition, the EC50 in experiment [2] was found to be 14.1 nM; in experiment [3] it was 128 nM. Also, the binding result in experiment [9] and in experiment [10] was “no binding (tested: about 20 µM TTR)” throughout.

B5: murine anti-human monomer TTR antibody Ab2 (antibody, V domains shown)
VH: EVKLEQSGGGLVQPGGSMKLSCVASGFTFSNYWMNWVRQSPEKGLEWVAQIRLKSDNYATHYAESVKGRFTISRDDSKSSVYLQMNNLRAEDTGIYYCTGVFTYWGQGTLVTVSA
VL: NIVLTQSPASLAVSLGQRATISCRTSESVDSYGNSFMHWYQQKPGQPPKLLIYLASNLESGVPARFSGSGSRTDFTLTIDPVEADDAATYYCQQNNEDPMYTFGGGTKLEIK
notes: Murine monoclonal antibody; also called mAb 2; Antibody 2
On to B5, for which the affinity in experiment [1], expressed as Kd, was 6.21 nM. Also, the EC50 in experiment [2] was 1.45 nM; in experiment [3], 98.9 nM; in [11], 0.16 nM.

B6: Humanized Ab1 construct (antibody, V domains shown)
VH: QVQLVQSGAEVKKPGASVKVSCKASGYTFTSYWMHWVRQAPGQGLEWIGNIDPSDSETHYAQKFQGRATLTVDKSTSTVYMELSSLRSEDTAVYYCARGRNYWYFDVWGTGTMVTVSS
VL: DIQMTQSPSSLSASVGDRVTITCRASESVDNYGISFMNWFQQKPGKPPKLLIYAASNQGSGVPSRFSGSGSGTDFTLTISSLQPEDFATYYCQQSKEVPWTFGGGTKLEIK
notes: also called humanized antibody Ab1; humanized construct for Ab1
Consider B6, for which the binding result in experiment [12] is “no binding (tested: about 60 nM antibody)”. A half-maximal response in experiment [11] (EC50) required 0.55 nM. The “fold weaker than the IgG2 form of Ab1” value in experiment [13] is roughly 10 fold.
